Test [1] concerns the target cHSP27 C137S (human) (UniProt P04792). The test can be described thus: 15N CPMG relaxation dispersion NMR; cHSP27 (1 mM, reduced with 5 mM BME, 14.1 T only) or C137S (1 mM and 0.3 mM; 25, 30, 35 °C; 11.7 and 14.1 T) in NMR buffer pH 7; global two-state fit; dimer to monomers.
For test [2] the target is unchanged. The test can be described thus: NMR (1H-15N HSQC, G116 monomer and dimer peak intensities) against pH; [U-15N]-C137S at 250 μM in NMR buffer at pH 7, 25 °C, and separate samples at pH 6.5, 6.0 and 5.0, 1 bar; similar pH titrations on oxidised cHSP27; the rows are for pH 5 / low pH; dimer to monomers.
Test [3] has the same target. Nature of the test: NMR titration; intensities of the G116 monomer and dimer resonances against protein concentration, pH 7, 1 bar; dimer to monomers.
Test [4] shares this target. Nature of the test: high-pressure NMR (1H-15N HSQC); 200 μM [U-15N]-C137S in baroresistant buffer (100 mM Tris-HCl, 100 mM phosphate) pH 7, 25 °C, 14.1 T, 1 to 2500 bar; three-state model (dimer, monomer, unfolded); similar pressure titrations on oxidised cHSP27.
In test [5] the target is cHSP27(H124K/C137S) (human) (UniProt P04792). Nature of the test: NMR titration; intensities of the G116 monomer and dimer resonances against protein concentration, pH 7, 1 bar; dimer to monomers.

Here are results for two substances from paper PMC6403371.

With “cHSP27 C137S (from UniProt P04792 84-171) (domain or fragment)”, the equilibrium dissociation constant (Kd) (commonly the concentration at which binding is half-saturated) in test [1] is 0.5 µM; in test [2] it was 5000 µM; in test [3] it was 0.7 µM. For the same substance, the population of the monomer at 1 mM in test [1] is 1.5%. Besides, the fold increase of Kd at 1600 bar (against 1 bar) in test [4] amounted to 10 fold.
In turn, “cHSP27(H124K/C137S) (from UniProt P04792 84-171) (domain or fragment)” showed a Kd in test [5] of 1100 µM.
